The text below walks through data of US20250297282A1.

The assay addresses GFP-encoding lentiviral particles.

Regarding “StrepTactin Superflow column (0.2 mL resin bed, 3 mg binding capacity per mL; IBA Lifesciences GmbH)”, the GFP+ cells (gate over CD8- and CD8+ cells) among T cells five days after transduction with the biotin elution fraction of the column without VBP (-VB), by flow cytometry was determined as 0.069%.
